Test results: article PMC3580236

Target: T1, Rev1 G193R (1-746) (Saccharomyces cerevisiae (expression …, UniProt P12689 1-746, G193R))
T1 sequence: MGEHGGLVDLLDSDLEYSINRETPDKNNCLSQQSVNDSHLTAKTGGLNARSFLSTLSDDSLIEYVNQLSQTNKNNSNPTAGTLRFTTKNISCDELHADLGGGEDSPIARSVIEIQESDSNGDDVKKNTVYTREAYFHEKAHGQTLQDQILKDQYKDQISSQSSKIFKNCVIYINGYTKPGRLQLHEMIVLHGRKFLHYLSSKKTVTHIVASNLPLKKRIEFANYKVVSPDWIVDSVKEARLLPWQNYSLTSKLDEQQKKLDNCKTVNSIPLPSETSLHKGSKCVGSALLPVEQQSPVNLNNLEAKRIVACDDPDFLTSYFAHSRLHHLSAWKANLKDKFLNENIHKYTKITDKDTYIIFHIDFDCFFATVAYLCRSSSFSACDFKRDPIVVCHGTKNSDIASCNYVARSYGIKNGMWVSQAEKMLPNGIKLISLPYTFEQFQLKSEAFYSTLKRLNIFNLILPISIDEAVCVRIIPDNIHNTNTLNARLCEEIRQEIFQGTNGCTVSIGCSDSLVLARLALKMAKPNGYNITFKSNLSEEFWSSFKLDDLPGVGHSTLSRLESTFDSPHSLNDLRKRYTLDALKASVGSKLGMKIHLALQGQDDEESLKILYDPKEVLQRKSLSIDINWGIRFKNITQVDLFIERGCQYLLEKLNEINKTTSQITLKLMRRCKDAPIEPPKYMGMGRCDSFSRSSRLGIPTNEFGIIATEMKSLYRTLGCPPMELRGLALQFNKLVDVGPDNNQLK
Experiment: pre-steady-state burst amplitude titration

B1: 24/45-mer primer-template (dsDNA)
DNA 1: GCCTCGCAGCCGTCCAACCAACTC
DNA 2: GGACGGCATTGGATCGACCTGGAGTTGGTTGGACGGCTGCGAGGC
Q: Which Kd does the source give for B1 here?
A: Its Kd is 16 ± 5 nM.
